The test deals with T1, Secreted Protease of C1 Esterase Inhibitor (StcE), recombinant N-terminal His-tagged (Escherichia coli O157:H7, UniProt O82882 36-898).
T1 construct: also called mucinase
T1 sequence: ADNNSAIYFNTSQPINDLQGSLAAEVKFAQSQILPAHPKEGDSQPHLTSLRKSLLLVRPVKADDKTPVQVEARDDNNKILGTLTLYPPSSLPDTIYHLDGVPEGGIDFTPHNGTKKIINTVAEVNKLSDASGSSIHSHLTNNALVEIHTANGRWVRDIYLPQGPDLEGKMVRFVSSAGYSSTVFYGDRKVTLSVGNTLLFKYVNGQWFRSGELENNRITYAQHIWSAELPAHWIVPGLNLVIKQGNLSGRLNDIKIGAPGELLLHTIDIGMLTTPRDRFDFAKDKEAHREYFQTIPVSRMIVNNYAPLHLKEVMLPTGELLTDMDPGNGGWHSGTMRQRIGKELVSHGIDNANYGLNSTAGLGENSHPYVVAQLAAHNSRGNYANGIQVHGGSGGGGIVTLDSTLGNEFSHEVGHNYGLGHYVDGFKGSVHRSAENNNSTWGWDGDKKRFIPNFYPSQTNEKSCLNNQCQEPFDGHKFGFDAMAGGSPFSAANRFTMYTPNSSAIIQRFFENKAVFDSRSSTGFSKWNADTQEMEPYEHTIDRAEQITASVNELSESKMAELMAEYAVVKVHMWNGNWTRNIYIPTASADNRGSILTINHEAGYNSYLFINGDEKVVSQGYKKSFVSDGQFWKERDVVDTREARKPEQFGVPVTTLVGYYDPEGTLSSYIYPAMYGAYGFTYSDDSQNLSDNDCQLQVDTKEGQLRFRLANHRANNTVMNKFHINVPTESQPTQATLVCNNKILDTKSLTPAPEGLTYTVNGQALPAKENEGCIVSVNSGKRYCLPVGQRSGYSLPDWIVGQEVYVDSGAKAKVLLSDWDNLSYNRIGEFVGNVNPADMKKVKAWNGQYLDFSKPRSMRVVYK
As to the kind of experiment: pull-down with StcE conjugated to POROS AL beads, EDTA present, silver stain.

B1: C1 esterase inhibitor, human plasma-derived (other)
chain: NPNATSSSSQDPESLQDRGEGKVATTVISKMLFVEPILEVSSLPTTNSTTNSATKITANTTDEPTTQPTTEPTTQPTIQPTQPTTQLPTDSPTQPTTGSFCPGPVTLCSDLESHSTEAVLGDALVDFSLKLYHAFSAMKKVETNMAFSPFSIASLLTQVLLGAGENTKTNLESILSYPKDFTCVHQALKGFTTKGVTSVSQIFHSPDLAIRDTFVNASRTLYSSSPRVLSNNSDANLELINTWVAKNTNNKISRLLDSLPSDTRLVLLNAIYLSAKWKTTFDPKKTRMEPFHFKNSVIKVPMMNSKKYPVAHFIDQTLKAKVGQLQLSHNLSLVILVPQNLKHRLEDMEQALSPSVFKAIMEKLEMSKFQPTLLTLPRIKVTTSQDMLSIMEKLEFFDFSYDLNLCGLTEDPDLQVSAMQHQTVLELTETGVEAAAASAISVARTLLVFEVQQPFLFVLWDQQHKFPVFMGRVYDPRA
notes: Printed as C11NH throughout (OCR of C1INH); Native glycosylated protein; also called C11NH; C1-INH
B1: the binding result is on record as “binds”.
